In this assay the target is calmodulin (CaM) (UniProt P62157 1-149). Nature of the assay: cell-based or functional assay.

B1: FLAG-DAPK2 WT (enzyme)
chain: MFQASMRSPNMEPFKQQKVEDFYDIGEELGSGQFAIVKKCREKSTGLEYAAKFIKKRQSRASRRGVSREEIEREVSILRQVLHHNVITLHDVYENRTDVVLILELVSGGELFDFLAQKESLSEEEATSFIKQILDGVNYLHTKKIAHFDLKPENIMLLDKNIPIPHIKLIDFGLAHEIEDGVEFKNIFGTPEFVAPEIVNYEPLGLEADMWSIGVITYILLSGASPFLGDTKQETLANITAVSYDFDEEFFSQTSELAKDFIRKLLVKETRKRLTIQEALRHPWITPVDNQQAMVRRESVVNLENFRKQYVRRRWKLSFSIVSLCNHLTRSLMKKVHLRPDEDLRNCESDTEEDIARRKALHPRRRSSTS
Take B1: the “fold induction of the catalytic activity (MLC phosphorylation, in vitro kinase assay) upon addition of Ca2+/CaM against EGTA” value is 5.7 fold.

Source of the values: publication PMC5931534, “Non-canonical activation of DAPK2 by AMPK constitutes a new pathway linking metabolic stress to autophagy” (Nature Communications, 2018).
